Assay results as given in patent US6475781.

Legend:
[1] = molecular target: human PDGF-B (c-sis) (human) (UniProt P01127); experiment: cell-based or functional assay
[2] = molecular target: wildtype murine PDGF A chain (murine) (UniProt P20033); experiment: cell-based or functional assay

Chain of human PDGF-B (c-sis) (human) (P01127 82-190 limits assumed): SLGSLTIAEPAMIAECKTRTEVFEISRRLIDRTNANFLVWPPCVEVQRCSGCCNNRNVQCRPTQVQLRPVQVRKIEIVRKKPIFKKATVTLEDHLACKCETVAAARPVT

growth of PDGF-B (c-sis) transformed Balb/c 3T3 sublines in PPP-supplemented medium [1]: 90 % inhibition
growth of PDGF-A transformed Balb/c 3T3 sublines in PPP-supplemented medium (% suppression) [2]: 70
Substance: PDGF A dominant negative mutant 1308 (murine PDGF A chain with the third cysteine residue changed to serine) (from UniProt P20033 87-196) (ligand)
